Assay results: the supplement of paper PMC9170038

System: K4 kissing-loop RNA reporter
Test: apparent KD of K4 kissing-loop reporter; higher = weaker reporter binding
Conditions: Eterna round: R107
Method: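 RNA-MaP round R107: designed RNA switches with theophylline, tryptophan, arginine or FMN aptamers are transcribed on-chip within common flanks. They are titrated with a labelled K4 kissing-loop RNA reporter in RNA-MaP buffer (100 mM Tris pH 7.5, 80 mM KCl, 4 mM MgCl2), without ligand or with the indicated ligand. Median apparent KD per design.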

[1] = input ligand: theophylline 20 uM
[2] = input ligand: tryptophan 2.4 mM
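Note: bound reporter read as fluorescence of individual clusters on recovered sequencing chips by microscopy, with normalized cluster intensities fitted with a binding model.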

Sequence | apparent KD of K4 kissing-loop reporter (input ligand: FMN 200 uM) | apparent KD of K4 kissing-loop reporter (input ligand: arginine 13.2 mM) | apparent KD of K4 kissing-loop reporter (input ligand: none) | apparent KD of K4 kissing-loop reporter [1] | apparent KD of K4 kissing-loop reporter [2]
UGAUACCAGACGGCCGCCACUGCGCCAGUCAAUGACUGAGCGCGGUGGCGCUCAGUGAUGUUGUGCAGGACCGGGUCUGGUAUCU [Mod of Eli's TrypBX 8 v6] | 476 nM | 383 nM | 410 nM | 364 nM | 398 nM
UGAUACCAGACUGAUACCAGCCAGUGAUGUUGGCAAUAACCAAGGCGAGUCAAAGACUCGGGCCCUUGGCAGCAGUCUGGUAUCU [TheoBX 6 #SwitchBubble #StaticStem] | 134 nM | 150 nM | 133 nM | 143 nM | 136 nM
UGAUACCAGGCGGCCGCCACUCCUGCAGGUCAAAGACCUGUGAAGCUGGUUCUCCAGUGAUGUUGGAGGACCGGGCCUGGUAUCU [FiskerMod 27 - Jieux - Exclusion - Tryptophan B] | 202 nM | 176 nM | 185 nM | 179 nM | 356 nM
UGAUAGGACAGAAGGAGCGGAGCUGGUCAAAGACCAGCAAUACGUUGAAAAGGAGUGAUGUUCCAGGUAGGUCGCUGUCCUAUCU [ArgBX 27 #SwitchBubble #StaticStem] | 93.5 nM | 103 nM | 106 nM | 133 nM | 85.2 nM
UGAUAGGACAGAAGGAGCGGGAGUGAUGUUCCCAAAAGGAUAAGGUGUCAAAAGACACCCUCCCAGGUAGGUCGCUGUCCUAUCU | 577 nM | 311 nM | 663 nM | 532 nM | 544 nM
UGAUCUGCAGUGAUGUUGCAGUAGCUGUCAGAGGAUAUCAGACUCAUGAGAAGGCUGACAAUGUCUAACAGCACAAUGCUGUUCA [FMN A SS t6] | 156 nM | 156 nM | 166 nM | 197 nM | 146 nM
UGAUUUAACUGAAGGAGCGGCAAUUGAUAAGUAAAUAUAGUGAUGUUAUAUAAGAGAGAGAGCCAGGUAGGUCGCAGAGGGAGGA [ExArgB.I] | 205 nM | 138 nM | 167 nM | 170 nM | 140 nM
UGCAGUGAUGUUGCGAGUGGCAGAUACGAAGGAGCGUGGUGAGACACAGGUAGGUCGCGUAUUGAAAUUGCUGUCACUAAAAUGC [#7] | 448 nM | 469 nM | 505 nM | 483 nM | 362 nM
UGCCGCAAGGCGAGCGCUCCCACUCCGGAAGGAGCGCCCGGAAGGGCAGGUAGGUCGCCGGAGUGAUGUUCCGGUGGAGGGCUCG [#2 Exclusion - Arginine A Attempt #26 (Inspired by Omei)] | 462 nM | 165 nM | 358 nM | 337 nM | 297 nM
UGCUUUAUCAGAAGGAGCGCGUAAGUUAUACUAAUAAUCAGUGAUGUUGAUAUAUGAUCUUUGCAGGUAGGUCGCUGAUAUAGCU [KL-XARG-B4] | 452 nM | 419 nM | 532 nM | 467 nM | 472 nM
UGGAGUUGACGAAAAGUCAACUCCUGAGAAGGAGCGCACGAAAGUGCAGGUAGGUCGCUCUACCAGUGAUGUUGGUACUUAAUAA [#OpenEnded 6] | 92.1 nM | 170 nM | 117 nM | 162 nM | 84.5 nM
UGGAGUUGACGAAAAGUCAACUCCUGAGAAGGAGCGGACGAAAGUCCAGGUAGGUCGCUCACUACCAGUGAUGUUGGUAAUUCAA [#OpenEnded 3] | 269 nM | 284 nM | 277 nM | 272 nM | 234 nM
UGGAGUUGACGAAAAGUCAACUCCUGAGAUACCAGUGACGAAAGUCACCCUUGGCAGCUCACUGCCAGUGAUGUUGGUUCAUAAG [#03 K4 Theophylline A Same State] | 223 nM | 197 nM | 152 nM | 245 nM | 142 nM
UGGAGUUGACGAAAAGUCAACUCCUGGGAAGGAGCGGACGAAAGUCCAGGUAGGUCGCCCACUACCAGUGAUGUUGGUACCUAAA | 274 nM | 320 nM | 257 nM | 307 nM | 206 nM
UGGAUAUCGUUUAGUCUGGUGAGGUCAGAUACCAGACUAGCGAUAGUCCCUUGGCAGCUGAUUAUGAUUGAGUGAUGUUCAAUCG [Theo A Ex t9a] | 179 nM | 154 nM | 175 nM | 180 nM | 180 nM
UGGCGACUGCCAGUGAUGUUGGCCGUCGUACGAGGACCGGUACGGCCGCCACUCGUCCUGGUUUAGGCUCCGCCUUCACAUCAGG [Beterire] | 401 nM | 326 nM | 393 nM | 784 nM | 309 nM
